These results are taken from paper PMC10808224, “Lsr2 acts as a cyclic di-GMP receptor that promotes keto-mycolic acid synthesis and biofilm formation in mycobacteria” (Nature Communications, 2024).

For series [1], the target named is Lsr2Mtb (Lsr2BCG in main text) (Mycobacterium tuberculosis) (UniProt P9WIP7). Briefly: EMSA. In general terms: Mobility shift assays separate free from complexed probe on a gel.
Series [2] deals with Lsr2Msm (Mycobacterium smegmatis mc2 155) (UniProt A0R576). Description: EMSA. Conditions: EMSA: 50 mM Tris-HCl pH 7.5, 50 mM NaCl, 10% glycerol, 30 uL, room temperature 15 min; 8% native PAGE in 0.5x TBE.

Turning to “CCGCTCGGATCGGGGTTCCGTCGGCCCTGGCGCTGGGTGCGGCCGGCGGCGCGTTGGCGGCTCTAGCCTCTAGACGCCAATCACGCTGATAAGCTGCGCCGTTAGCCTGGCGACGATGCGGCCCGCGCAGCGGGGCGAGGAGGAGCCGGGCAATAGGGCCCAGCCTGGCGACGATGCGACCCGCGCAGCGGGGCGAGGAGGAGCCGGGCAATAGGGCTTAGCAACTATTCGAGCGGAGGGCGGCAGCGGCATGACAGTTCCCGAAGAAGCCCAGACACTGATCGGCAAGCATTATCGGGC (double strand) [hadDMtbp / hadDBCGp]”, the binding result in series [1] is “binds”.
Regarding “TAGTCGGGGTAGCGGTAGTGAGTCCCGATGATGTTTGCCGCGATGCTCATGTGTTCTCTGCTACTCCCGTGCTTCCAGCTTCAACTGCCCGGCTGCGGAAGCCTATCAGCGTGGGGGTTCAGCGAATGTCAGCGAAGGTCAGCGAAGGTCATGGCGGCGGGAGGCCACCGCGGCCAGCGCGCCGCCGAGCGCCCCTAGGGCCAGCGCGGACGGCACACCGATGCGGGCCGCTTTGCGGGCCGTGCGGAAGTCGCGGATCTCCCAGCCGCGTTCCCGCGCGACGTCGCGCAGCGCGGCGTC (double strand) [hadDMsmp]”, in series [2], the binding result was “binds”.
